Experimental findings from PMC9091920 (Journal of Pharmaceutical Analysis, 2021) are described below.

Test [1] addresses recombinant human interferon α2b (human) (UniProt P01563). Kind of test: far-Western, overlay or dot blot.
For test [2] the target is unchanged. Kind of test: BLI. On the technique in general: BLI is a label-free optical method that tracks binding on a fibre tip over time.
Test [3] shares this target. Kind of test: lateral-flow immunochromatographic strip.

B1: nanobody I22 (His-labeled, purified) (VHH)
VHH: QVQLVESGGGLVQPGGSLRLSCVASGFTFDSATMSWHRQAPGREREFVAMTSGGGMINYANSVKGRFTISRDNAKNTVYLQMDSLKPEDTAVYYCHRLGTFHWGQGTQVTVSS
For orientation: Kd means the equilibrium constant for the complex coming apart. Turning to B1, the limit of detection is 31.2 ng in test [1] and 1 µg/mL in test [3]. The Kd in test [2] turned out to be 2.06 nM.
